T1: GRK7(h) (human, UniProt Q8WTQ7 1-553, limits assumed)
T1 sequence (looked up): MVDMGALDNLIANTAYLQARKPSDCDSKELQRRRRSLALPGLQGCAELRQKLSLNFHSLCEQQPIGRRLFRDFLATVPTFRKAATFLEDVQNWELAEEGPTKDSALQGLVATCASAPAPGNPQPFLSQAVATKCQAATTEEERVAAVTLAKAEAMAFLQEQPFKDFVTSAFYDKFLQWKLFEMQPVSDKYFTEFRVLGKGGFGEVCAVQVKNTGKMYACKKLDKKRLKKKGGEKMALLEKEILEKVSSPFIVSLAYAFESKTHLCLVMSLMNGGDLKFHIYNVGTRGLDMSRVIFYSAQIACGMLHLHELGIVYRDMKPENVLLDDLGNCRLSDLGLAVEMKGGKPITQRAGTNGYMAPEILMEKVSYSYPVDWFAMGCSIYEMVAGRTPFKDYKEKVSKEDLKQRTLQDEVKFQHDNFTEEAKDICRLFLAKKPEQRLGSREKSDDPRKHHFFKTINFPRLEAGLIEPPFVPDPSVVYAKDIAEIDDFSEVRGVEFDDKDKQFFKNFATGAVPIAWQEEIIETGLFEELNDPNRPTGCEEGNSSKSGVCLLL

T2: Haspin(h) (human, UniProt Q8TF76 471-798, limits assumed)
T2 sequence (looked up): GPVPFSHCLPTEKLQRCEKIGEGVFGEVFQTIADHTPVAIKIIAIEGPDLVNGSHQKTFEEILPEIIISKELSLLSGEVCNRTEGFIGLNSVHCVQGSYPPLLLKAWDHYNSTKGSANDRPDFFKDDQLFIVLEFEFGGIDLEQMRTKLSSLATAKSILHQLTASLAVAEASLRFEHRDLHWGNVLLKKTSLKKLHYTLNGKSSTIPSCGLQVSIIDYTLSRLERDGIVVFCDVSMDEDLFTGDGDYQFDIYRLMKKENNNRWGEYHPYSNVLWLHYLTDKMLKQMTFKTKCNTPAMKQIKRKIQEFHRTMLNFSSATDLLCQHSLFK

T3: PDK1(h) (human, UniProt O15530 1-556, limits assumed)
T3 sequence (looked up): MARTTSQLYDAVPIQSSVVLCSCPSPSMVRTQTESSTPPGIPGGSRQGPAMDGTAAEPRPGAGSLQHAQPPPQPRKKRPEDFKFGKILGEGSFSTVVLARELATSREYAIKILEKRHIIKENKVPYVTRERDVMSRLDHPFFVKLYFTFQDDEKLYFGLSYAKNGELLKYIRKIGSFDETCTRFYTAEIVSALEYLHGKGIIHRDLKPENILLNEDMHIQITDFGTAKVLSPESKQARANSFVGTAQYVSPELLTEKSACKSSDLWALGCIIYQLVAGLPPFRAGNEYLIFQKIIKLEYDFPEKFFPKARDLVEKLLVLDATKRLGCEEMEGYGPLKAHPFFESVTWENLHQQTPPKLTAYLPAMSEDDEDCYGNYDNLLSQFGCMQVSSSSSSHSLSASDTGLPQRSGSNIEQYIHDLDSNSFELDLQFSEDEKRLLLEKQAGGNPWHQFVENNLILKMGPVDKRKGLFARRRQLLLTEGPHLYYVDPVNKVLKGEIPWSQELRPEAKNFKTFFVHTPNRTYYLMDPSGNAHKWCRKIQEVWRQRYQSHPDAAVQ

T4: PKCζ(h) (human, UniProt Q05513 1-592)
T4 sequence (looked up): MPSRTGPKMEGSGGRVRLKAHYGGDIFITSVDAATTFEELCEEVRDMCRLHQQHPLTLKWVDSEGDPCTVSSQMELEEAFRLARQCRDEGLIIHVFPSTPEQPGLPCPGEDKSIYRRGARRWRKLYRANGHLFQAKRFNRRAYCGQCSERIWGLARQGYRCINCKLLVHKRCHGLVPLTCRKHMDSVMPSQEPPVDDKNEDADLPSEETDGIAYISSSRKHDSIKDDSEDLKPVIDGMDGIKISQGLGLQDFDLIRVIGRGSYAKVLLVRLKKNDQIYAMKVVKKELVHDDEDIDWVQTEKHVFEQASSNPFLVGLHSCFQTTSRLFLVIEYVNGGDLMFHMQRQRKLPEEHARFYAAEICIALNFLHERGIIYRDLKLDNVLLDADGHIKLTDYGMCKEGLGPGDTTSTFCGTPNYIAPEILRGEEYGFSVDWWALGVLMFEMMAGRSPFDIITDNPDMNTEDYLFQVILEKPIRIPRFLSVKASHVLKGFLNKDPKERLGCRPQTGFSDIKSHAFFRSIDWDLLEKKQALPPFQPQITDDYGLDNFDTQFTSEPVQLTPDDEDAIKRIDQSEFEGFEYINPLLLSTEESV


What was measured:
Test in all cases: cell-based or functional assay
GRK7(h) = target: T1, GRK7(h)
Haspin(h) = target: T2, Haspin(h)
LOK(h) = LOK(h) (human, UniProt O94804 1-348, limits assumed)
Chain of LOK(h) (O94804 1-348 limits assumed): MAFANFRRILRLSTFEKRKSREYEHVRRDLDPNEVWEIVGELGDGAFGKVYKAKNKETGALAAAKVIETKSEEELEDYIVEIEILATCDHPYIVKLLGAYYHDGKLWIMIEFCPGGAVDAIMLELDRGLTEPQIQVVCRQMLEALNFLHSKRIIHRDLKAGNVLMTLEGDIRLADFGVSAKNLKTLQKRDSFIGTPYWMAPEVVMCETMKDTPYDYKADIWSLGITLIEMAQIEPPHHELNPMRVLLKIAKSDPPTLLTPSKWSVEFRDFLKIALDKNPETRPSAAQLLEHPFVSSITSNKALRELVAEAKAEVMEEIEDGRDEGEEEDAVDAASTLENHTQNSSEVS

PDK1(h) = target: T3, PDK1(h)
PKCζ(h) = target: T4, PKCζ(h)
SAPK2a(h) = SAPK2a(h) (human, UniProt Q16539 1-360)
Chain of SAPK2a(h) (Q16539 whole entry): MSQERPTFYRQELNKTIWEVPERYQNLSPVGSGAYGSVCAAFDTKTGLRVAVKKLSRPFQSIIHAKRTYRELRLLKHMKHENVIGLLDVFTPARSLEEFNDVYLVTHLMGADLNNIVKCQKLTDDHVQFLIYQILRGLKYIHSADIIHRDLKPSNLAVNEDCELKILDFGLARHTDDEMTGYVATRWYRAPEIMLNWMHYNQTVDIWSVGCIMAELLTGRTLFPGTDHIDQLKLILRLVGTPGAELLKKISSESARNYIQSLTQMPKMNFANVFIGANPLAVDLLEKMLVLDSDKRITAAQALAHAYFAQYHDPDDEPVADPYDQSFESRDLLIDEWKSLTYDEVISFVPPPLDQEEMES

SIK(h) = SIK(h) (human, UniProt P57059 1-783, limits assumed)
Chain of SIK(h) (P57059 whole entry): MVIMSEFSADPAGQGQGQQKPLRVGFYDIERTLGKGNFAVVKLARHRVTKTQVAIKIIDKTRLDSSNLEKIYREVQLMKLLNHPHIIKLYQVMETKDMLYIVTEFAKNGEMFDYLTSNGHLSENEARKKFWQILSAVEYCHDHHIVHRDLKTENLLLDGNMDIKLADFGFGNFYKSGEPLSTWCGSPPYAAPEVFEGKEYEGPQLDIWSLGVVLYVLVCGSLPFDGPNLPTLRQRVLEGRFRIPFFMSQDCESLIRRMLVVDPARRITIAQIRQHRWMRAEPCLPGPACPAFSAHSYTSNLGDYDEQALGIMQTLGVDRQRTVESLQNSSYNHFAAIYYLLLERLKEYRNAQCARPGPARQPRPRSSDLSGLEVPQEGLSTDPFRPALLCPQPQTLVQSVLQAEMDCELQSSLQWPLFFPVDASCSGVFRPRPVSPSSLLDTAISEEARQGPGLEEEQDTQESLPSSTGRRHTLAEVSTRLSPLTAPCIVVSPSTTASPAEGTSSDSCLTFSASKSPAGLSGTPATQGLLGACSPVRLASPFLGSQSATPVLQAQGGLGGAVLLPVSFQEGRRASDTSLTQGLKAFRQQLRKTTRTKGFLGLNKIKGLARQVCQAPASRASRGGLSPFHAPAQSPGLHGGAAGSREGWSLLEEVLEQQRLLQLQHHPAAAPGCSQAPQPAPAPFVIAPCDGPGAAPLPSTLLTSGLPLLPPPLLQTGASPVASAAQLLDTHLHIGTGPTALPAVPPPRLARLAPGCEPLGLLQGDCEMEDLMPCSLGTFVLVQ

Syk(h) = Syk(h) (human, UniProt P43405 1-635, limits assumed)
CDK5/p35(h) = CDK5/p35(h) (human, UniProt Q00535 1-292; Q15078 1-307)
Fer(h) = Fer(h) (human, UniProt P16591 541-822, limits assumed)
Chain of Fer(h) (P16591 541-822 limits assumed): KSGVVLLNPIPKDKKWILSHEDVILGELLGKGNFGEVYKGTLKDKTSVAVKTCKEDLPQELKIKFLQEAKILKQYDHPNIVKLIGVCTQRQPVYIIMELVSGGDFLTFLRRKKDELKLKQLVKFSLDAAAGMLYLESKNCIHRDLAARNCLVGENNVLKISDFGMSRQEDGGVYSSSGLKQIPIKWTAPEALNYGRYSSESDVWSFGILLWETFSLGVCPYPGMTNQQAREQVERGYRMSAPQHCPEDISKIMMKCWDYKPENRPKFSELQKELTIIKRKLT

Fgr(h) = Fgr(h) (human, UniProt P09769 1-529, limits assumed)
Note: test concentration or dose not given here.

% activity (GRK7(h)) [%]	% activity (Haspin(h)) [%]	% activity (LOK(h)) [%]	% activity (PDK1(h)) [%]	% activity (PKCζ(h)) [%]	% activity (SAPK2a(h)) [%]	% activity (SIK(h)) [%]	% activity (Syk(h)) [%]	% activity (CDK5/p35(h)) [%]	% activity (Fer(h)) [%]	% activity (Fgr(h)) [%]	Binder
122	48	37	135	81	90	66	24	79	130	60	FAKLAARLYRKALARQLGVAA [MMI-0300]
100	36	18	159	75	85	68	9	76	108	47	KAFAKLAARLYRKALARQLGVAA [MMI-0400]
